Assays:
[1] = target: the molecule itself; experiment: SEC; Superose 6 3.2/300, 50 mM MES pH 6.2, 150 mM NaCl, no Ca2+
[2] = target: the molecule itself; experiment: SEC; Superose 6 3.2/300, 50 mM MES pH 6.2, 150 mM NaCl, 4 mM CaCl2, 0 h incubation, room temperature; covalent dimers to tetramer

B1: MUC5B N-terminal part (MUC5B-N), recombinant covalent dimer (domain or fragment, human, UniProt Q9HC84 26-1304, looked up)
chain: QGPVEPSWENAGHTMDGGAPTSSPTRRVSFVPPVTVFPSLSPLNPAHNGRVCSTWGDFHYKTFDGDVFRFPGLCNYVFSEHCRAAYEDFNVQLRRGLVGSRPVVTRVVIKAQGLVLEASNGSVLINGQREELPYSRTGLLVEQSGDYIKVSIRLVLTFLWNGEDSALLELDPKYANQTCGLCGDFNGLPAFNEFYAHNARLTPLQFGNLQKLDGPTEQCPDPLPLPAGNCTDEEGICHRTLLGPAFAECHALVDSTAYLAACAQDLCRCPTCPCATFVEYSRQCAHAGGQPRNWRCPELCPRTCPLNMQHQECGSPCTDTCSNPQRAQLCEDHCVDGCFCPPGTVLDDITHSGCLPLGQCPCTHGGRTYSPGTSFNTTCSSCTCSGGLWQCQDLPCPGTCSVQGGAHISTYDEKLYDLHGDCSYVLSKKCADSSFTVLAELRKCGLTDNENCLKAVTLSLDGGDTAIRVQADGGVFLNSIYTQLPLSAANITLFTPSSFFIVVQTGLGLQLLVQLVPLMQVFVRLDPAHQGQMCGLCGNFNQNQADDFTALSGVVEATGAAFANTWKAQAACANARNSFEDPCSLSVENENYARHWCSRLTDPNSAFSRCHSIINPKPFHSNCMFDTCNCERSEDCLCAALSSYVHACAAKGVQLSDWRDGVCTKYMQNCPKSQRYAYVVDACQPTCRGLSEADVTCSVSFVPVDGCTCPAGTFLNDAGACVPAQECPCYAHGTVLAPGEVVHDEGAVCSCTGGKLSCLGASLQKSTGCAAPMVYLDCSNSSAGTPGAECLRSCHTLDVGCFSTHCVSGCVCPPGLVSDGSGGCIAEEDCPCVHNEATYKPGETIRVDCNTCTCRNRRWECSHRLCLGTCVAYGDGHFITFDGDRYSFEGSCEYILAQDYCGDNTTHGTFRIVTENIPCGTTGTTCSKAIKLFVESYELILQEGTFKAVARGPGGDPPYKIRYMGIFLVIETHGMAVSWDRKTSVFIRLHQDYKGRVCGLCGNFDDNAINDFATRSRSVVGDALEFGNSWKLSPSCPDALAPKDPCTANPFRKSWAQKQCSILHGPTFAACRSQVDSTKYYEACVNDACACDSGGDCECFCTAVAAYAQACHDAGLCVSWRTPDTCPLFCDFYNPHGGCEWHYQPCGAPCLKTCRNPSGHCLVDLPGLEGCYPKCPPSQPFFNEDQMKCVAQCGCYDKDGNYYDVGARVPTAENCQSCNCTPSGIQCAHSLEACTCTYEDRTYSYQDVIYNTTDGLGACLIAICGSNGTIIRKAVACPG
notes: MUC5B mucin, human, N-terminal part with the von Willebrand D1, D2, D' and D3 domains, residues 26-1304 of GenBank NM_002458; Disulfide-bonded (covalent) dimer through D3; Two such dimers form the non-covalent tetramer (Dx2) at pH 6.2 with Ca2+; also called MUC5B N-terminal covalent dimer; MUC5B N terminus; not shown: His6, N-terminal, kept
[1]
  stoichiometry N: 2
[2]
  stoichiometry N: 4
